Experimental data reported in the supplement of paper PMC12042874.
± gives the uncertainty stated by the source.

Experiment: amyloid nucleation score (Sup35N fusion, yeast selection) (log enrichment); library NNK1; higher = more nucleation; inactive = no reads after selection
How it was run: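 Using DiMSum, nucleation scores were taken as the log enrichment of output over input reads, centred on the mode score of non-aggregating sequences. The input and output reads came from Illumina sequencing of plasmid inserts, with sequences under 100 input reads excluded. The yeast were psi-negative, expressed Sup35N fused to peptides of 20 random codons, were induced with 100 μM copper sulfate for 24 hours, and were grown 7 days at 30°C on medium lacking adenine and uracil.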

| Substance | amyloid nucleation score |
| --- | --- |
| MENEWIVTSCFLFWINFYSV | 4.23 ± 0.072 |
| QTSLMMWLRR | inactive |
| YKYREGGKWPL | -1.3 ± 2.4 |
| NHFVALLSGIGVCSFWKKFG | -0.257 ± 1.5 |
| SFFLIIVQREKRVRTSGCL | 0.954 ± 0.8 |
| VMTWTLCRTRG | -0.275 ± 0.4 |
| LNWNCITCTLNFVKYVTDCR | 7.866 ± 0.046 |
| YHGRRVPRDVTNQRTMAQCD | 3.66 ± 0.087 |
| SHLNHEGFRLIQCLIWSLHW | 0.33 ± 0.54 |
| FQASSLTGPH | -0.574 ± 0.36 |
| WQLTGISIWARFMFYVWQGK | -1.34 ± 0.92 |
| SSSSYNSR | 0.97 ± 0.62 |
| IIVTSKQSTTYTHLVWERSG | -0.629 ± 0.69 |
| IGATLAPLTMSLNRSSDESS | 0.655 ± 0.64 |
| HQVVNNGTWGEQYIWMLSAC | 0.442 ± 0.46 |
| YLYAACVVWLMLLPNME | -0.671 ± 1.2 |
| VFVVSVNHRMIVNFTSCLNV | inactive |
| DNKGYL | -0.977 ± 1 |
| QFSHCWMSRRSGVNSAGRSG | -0.238 ± 0.39 |
| FRGSLIFSISVIKVISVLSE | 2.11 ± 0.14 |
| FPEFIVFRMRIVYIVSFRTW | 1.06 ± 0.47 |
| YSGRVTLWIVPMLHARH | -0.114 ± 0.42 |
| IDVGSHFCSFQEHKACGTSL | 0.31 ± 0.47 |
| WDWSERLQAFWSVTLSSNSW | 0.517 ± 0.71 |
| VSRVNYNVFSVGISKSVCD | 0.201 ± 0.85 |

| Substance | amyloid nucleation score |
| --- | --- |
| VFHFYILMNCESCVTGGVPV | 7.938 ± 0.054 |
| RCMLGLLNFIESIHGGR | 4.89 ± 0.095 |
| YALFADACSKGALDKVFSWV | 0.745 ± 1.2 |
| IYVYQLSFCCKAY | 0.235 ± 0.66 |
| HTSFGVCVSVICFVLRWAYH | inactive |
| NLFIPILVYHDVSRYSLRMD | 6.483 ± 0.055 |
| RNSDSNTVGNRSFWLLGIL | 0.389 ± 0.3 |
| ITPTYGT | -0.023 ± 0.39 |
| IVEDSLRFIANPYTILNR | 0.723 ± 0.55 |
| KCDARVVIFYLVRAGGVNGI | 1.41 ± 0.35 |
| QIINKFTSDIVLTD | 0.456 ± 0.38 |
| WFTGGFRVIMGS | 0.728 ± 0.97 |
| YFFVLEFIVCIVMTITSLSC | -0.988 ± 0.48 |
| FSSIVSGTLAI | inactive |
| SSNWLRY | 0.692 ± 0.66 |
| REWIYLVVETPCYFVDDVMD | -0.71 ± 0.52 |
| PVVDKLSDVHVM | -0.262 ± 0.31 |
| PFINVLSICLLIWALVPVDS | inactive |
| TFYLFSRGSSLEIWG | 5.72 ± 0.059 |
| VIGKMDEVGSIVEFDSGIRV | 0.658 ± 0.47 |
| GMTLMVAEFGLIRLVNTLAI | 0.785 ± 0.49 |
| RSSCL | -2.09 ± 2.4 |
| LILILNGMRNWSLAEDGACS | 0.326 ± 0.85 |
| YVLMPWSFLLHGMRNLTAMS | inactive |
| SYMFWIPLATQWKRVLNRVW | -0.479 ± 0.54 |

| Substance | amyloid nucleation score |
| --- | --- |
| WMFMNLVGVMFDGHGPGGSA | 1.66 ± 0.28 |
| SSFRLHR | inactive |
| NVSKDS | -0.063 ± 0.54 |
| RIKFDTKMRTVQCSCGSLHS | 2.78 ± 0.18 |
| FKAHRMVLHGYIGSMERG | -0.186 ± 1.1 |
| ISRSICKREVLQVDR | 0.378 ± 0.51 |
| VRKYRRWSRMIWGCYNNFVF | -1.44 ± 0.53 |
| QFGWFWFLNYALQDFDN | -0.696 ± 0.75 |
| TERDLYDILTKTMGIGVSRW | -0.544 ± 0.57 |
| FESTNVLPISGTSAGSV | 1.18 ± 0.74 |
| PWLKVQFVKREVTIDFRVRV | inactive |
| HQTCCLWSTVVLGV | 3.04 ± 0.15 |
| DYRIEVSLSVVYCFGLNMRN | 2.38 ± 0.082 |
| ARYSRRRKVMSLLVTGEMDA | -0.038 ± 0.44 |
| VVILYIDRFGVLFHHLG | 0.821 ± 1.1 |
| QAFFVFC | 1.3 ± 0.36 |
| LACTSASSVSRESFMYSQMS | 2.78 ± 0.16 |
| FPDGEYPMTYTLWELKYVFV | -0.487 ± 0.65 |
| HRPDIHFVVPVTAP | -0.619 ± 0.4 |
| RRSMGRGVLVKGRGSCREYV | 0.251 ± 0.81 |
| NCNLSQWLIRQPKRAVSTHT | 0.243 ± 0.33 |
| FLDYKTSSGHRLYLDRAKES | -0.492 ± 0.36 |
| LWRNKTHISVLQRGQVYHQT | 0.182 ± 0.57 |
| NFTTVAVLRFNDNGR | 4.43 ± 0.066 |
| YFMTHRGLCRCISLSYNFKI | -0.957 ± 0.98 |

| Substance | amyloid nucleation score |
| --- | --- |
| LHLVTYFVTYVLYSFSISAS | -0.268 ± 0.7 |
| TRFNTSEDHSLDNIEA | -0.542 ± 0.93 |
| GFFLI | -0.007 ± 0.21 |
| GWMYVSMLFGVG | -0.455 ± 1.7 |
| SNDTLS | 0.265 ± 0.39 |
| RYIRLRMFLCLFYLMCLPRR | -1.25 ± 0.75 |
| RFNTEKRLALNNNMPLRWFS | -0.125 ± 1.7 |
| DLFSTVFNWMTNCPFKNSW | -0.32 ± 0.49 |
| SYVVTVLHNWVWEEGDLEYE | 4.36 ± 0.11 |
| INYHMVNLNVLAMC | 2.17 ± 0.46 |
| NYITCC | 1.37 ± 0.1 |
| GFFPGHHSFLEATSLVSSLF | 1.4 ± 0.63 |
| AIAIPDRCLFYATRFSCDSR | inactive |
| DNGFSTQA | -0.11 ± 0.82 |
| LLDARWRTYSFRVAMLWGRR | inactive |
| TIMVVWCSGKDGSQVTWMQF | 0.324 ± 0.34 |
| SAVGYISLLYNSWAKYTICN | -0.562 ± 0.69 |
| YSGNSIFLNLRSSCAYCGGD | 6.35 ± 0.081 |
| RHMRSHENVGKFWRLSCFVN | -0.36 ± 0.51 |
| SLWNDFHMVAVYLVTLSSVD | 0.895 ± 0.79 |
| VNCISHGACMCRWFYDSGKK | 0.847 ± 0.38 |
| QWGTREYGIFLDIFVHVTVN | 0.237 ± 0.56 |
| IWLFFFPMSLRFASYWTGLL | -1.1 ± 0.81 |
| IWNSVARFRYSSMGFVVSAG | 0.898 ± 0.93 |
| LTSTDISMGRCAVHQSYLFK | 2.69 ± 0.29 |

| Substance | amyloid nucleation score |
| --- | --- |
| SLCRGATGGDGWWGVCSSA | 0.614 ± 0.91 |
| LHFVERLSLRPMGVVGFSRK | -0.178 ± 0.7 |
| VMVWHCRSATTWWKQVTMNL | -0.584 ± 2.1 |
| IMAGHFRL | 3.69 ± 0.082 |
| MRTDFERHIVSYVSELCKLP | -0.162 ± 0.73 |
| ESMDSWDYVLNISAEMVYCR | 0.366 ± 0.54 |
| MHRSFFHVM | 2.33 ± 0.52 |
| SGDRAYFSKFSVCIPRDRVQ | -0.046 ± 0.67 |
| HVQIILYLSFKTRRLVDLCL | inactive |
| SDKAMHCGCVLH | -0.891 ± 0.56 |
| GAGHGELDKWNPSDGPQLLW | -0.096 ± 0.77 |
| ASHFELYRLRKGLMCSVVSI | inactive |
| RNQVRDSRVISGPNFSSMKK | -0.51 ± 0.71 |
| KIFDMRVESVYWVGRSPSKV | 0.706 ± 0.17 |
| VRDMHSHTLGYCRDGMYYFK | -0.403 ± 0.84 |
| SPMMVNVYATDDVDLPSWLM | -0.293 ± 0.47 |
| KHDIIESQPQVVHNNRCVWL | inactive |
| TVLGTSQGSCGWSNPSRNAR | -0.455 ± 1.7 |
| GYNNRRDFPLSMPCRH | -0.363 ± 0.88 |
| SAPENSWGAWLDYGELEVGW | 0.016 ± 0.35 |
| LRYAG | -0.87 ± 0.53 |
| GPSLWLKTMVKGYAKTGLYR | -0.219 ± 0.32 |
| ELMCNTQSLSAETCFGKKSY | 0.97 ± 0.63 |
| VPWSFLQRSWLDIWECPYKL | -0.276 ± 0.41 |
| YSVLTFADLYMVSMS | inactive |

| Substance | amyloid nucleation score |
| --- | --- |
| STDSLLRWIKPERDGYRFLW | -0.479 ± 0.45 |
| NFGNVNFVYVTWMVAESSAC | 5.915 ± 0.057 |
| LDHTTVWCWCGTGGLYRRCC | -0.29 ± 0.31 |
| VSSFWRELVPYGMVCRESSL | 0.178 ± 0.56 |
| LNCCYKKNVGIQDMRTMDIQ | 0.247 ± 1.1 |
| QKLVDLTIRWGYRPLGRCWW | 0.622 ± 0.97 |
| LLQGCNEVPVRKSKVVSSVR | 0.441 ± 0.24 |
| FFLEAACYSIFGVEK | -0.612 ± 0.3 |
| YIFSHDKGMRR | 2.49 ± 0.25 |
| FFIICSYR | -0.868 ± 0.37 |
| ILYTNRMCLWSKTSNFLPLR | -0.318 ± 0.29 |
| TLVVGMRLDNHDHA | 1.14 ± 0.21 |
| DWFAECVFLRRTLESY | -0.601 ± 0.4 |
| TYGKIMVN | -0.418 ± 1.5 |
| VTWGSSPMQKFSMVQIKS | 0.564 ± 0.48 |
| RLKGSPHVLL | -1.69 ± 1.2 |
| LLISDAVVYLFWTPENHSTW | 1.2 ± 0.56 |
| GILFALSIVRDDYFC | -0.215 ± 0.19 |
| EAVSPYMYNYFRMANEQ | 0.311 ± 0.42 |
| IVGFHGSNFYSDVSVIGQML | inactive |
| YSSLLVTLAEAWCIRLSNRR | 0.665 ± 0.84 |
| DVRRYSGLNRAMKLRWGSCA | 0.193 ± 0.79 |
| VSSYAIYEECNLPGKAGKPC | -0.213 ± 0.63 |
| TYLQRCSIFRPSLTSMG | 0.273 ± 0.45 |
| IITMIP | -0.514 ± 0.65 |

| Substance | amyloid nucleation score |
| --- | --- |
| ARIEFSGWFHPQLDLVFFVQ | 1.97 ± 0.15 |
| KGWKTVVHCRDYGQVNNFGS | 2.22 ± 0.14 |
| QMRAFSDLFLLSDY | 0.406 ± 0.46 |
| MHMGFAWMSLIM | inactive |
| IYYSFVGLVMCYAFPAEVWS | 1.4 ± 0.51 |
| IALSTYCRNTDSPSSSGSCY | -0.245 ± 0.77 |
| NNVRVDKACGEAMEDEKRVV | 0.672 ± 0.37 |
| IGLMRLC | -0.608 ± 1.2 |
| AGIQIGWVIHSLCSSELRLS | -0.875 ± 0.69 |
| SLSFVVSGMRFAFAGFFMVS | -0.055 ± 0.21 |
| RGLTYVRVVGLARIGSACSV | 0.335 ± 0.53 |
| HDSNHFLRDLLVILRYYEAV | inactive |
| SMVKRSSVVYGLSRGSIKER | 1.08 ± 0.69 |
| SVWNILLIV | 0.665 ± 0.34 |
| AYVASFTSIRCRAHHAPLSK | -0.366 ± 0.3 |
| VFAICGSTCVGEKGTWPGEG | -0.263 ± 1.4 |
| LWWSSSLLASTAQCQGTGFM | -0.255 ± 0.76 |
| YSEYPSLLGRSSGMIDNFKG | 0.597 ± 0.28 |
| IWLKWCNSPLVRLSMGNSSF | 0.206 ± 0.27 |
